Assay results reported in paper PMC12416549 (2024).
Substitutions are numbered along the chain they refer to. Names and notes keep the numbering of the source.

T1: TNFR1 (Homo sapiens, UniProt P19438)
T1 chain: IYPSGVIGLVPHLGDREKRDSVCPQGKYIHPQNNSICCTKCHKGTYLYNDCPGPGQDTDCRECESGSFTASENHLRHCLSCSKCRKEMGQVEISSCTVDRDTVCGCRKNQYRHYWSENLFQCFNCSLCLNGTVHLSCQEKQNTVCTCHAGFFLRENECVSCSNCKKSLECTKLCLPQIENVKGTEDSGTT

B1: E89N (designed binder)
chain: SMEEEVEKAAKEYEKKKKEAIEKHLEKLKAKDKEAAERFLKELEEAAKEYAKDEAKTMSEEEAKRRAKKYKEKVLLSELSEEEQKEIKNAEEKLVRTILKYVEEAAK
B2: E37D (designed binder)
chain: B1 chain with E37D, N89E
B3: K73D (designed binder)
chain: B1 chain with K73D, N89E
B4: L99P (designed binder)
chain: B1 chain with N89E, L99P
B5: K31N (designed binder)
chain: B1 chain with K31N, N89E
B6: V102G (designed binder)
chain: B1 chain with N89E, V102G
B7: D32N (designed binder)
chain: B1 chain with D32N, N89E
B8: K100E (designed binder)
chain: B1 chain with N89E, K100E
B9: E86M (designed binder)
chain: B1 chain with E86M, N89E
B10: A90C (designed binder)
chain: B1 chain with N89E, A90C
B11: S1G (designed binder)
chain: B1 chain with S1G, N89E
B12: E44P (designed binder)
chain: B1 chain with E44P, N89E
B13: L76G (designed binder)
chain: B1 chain with L76G, N89E
B14: V95N (designed binder)
chain: B1 chain with N89E, V95N
B15: E54G (designed binder)
chain: B1 chain with E54G, N89E
B16: S77V (designed binder)
chain: B1 chain with S77V, N89E
B17: K41G (designed binder)
chain: B1 chain with K41G, N89E
B18: E89I (designed binder)
chain: B1 chain with N89I
B19: E5G (designed binder)
chain: B1 chain with E5G, N89E
B20: T57N (designed binder)
chain: B1 chain with T57N, N89E
B21: Y13S (designed binder)
chain: B1 chain with Y13S, N89E
B22: R96E (designed binder)
chain: B1 chain with N89E, R96E
B23: A90T (designed binder)
chain: B1 chain with N89E, A90T
B24: A67C (designed binder)
chain: B1 chain with A67C, N89E
B25: L94P (designed binder)
chain: B1 chain with N89E, L94P
B26: K27W (designed binder)
chain: B1 chain with K27W, N89E
B27: R65K (designed binder)
chain: B1 chain with R65K, N89E
B28: K107S (designed binder)
chain: B1 chain with N89E, K107S
B29: E3A (designed binder)
chain: B1 chain with E3A, N89E
B30: E14G (designed binder)
chain: B1 chain with E14G, N89E
B31: K29P (designed binder)
chain: B1 chain with K29P, N89E
B32: A106L (designed binder)
chain: B1 chain with N89E, A106L
B33: R65Y (designed binder)
chain: B1 chain with R65Y, N89E
B34: A30M (designed binder)
chain: B1 chain with A30M, N89E
B35: E22Q (designed binder)
chain: B1 chain with E22Q, N89E
B36: A47N (designed binder)
chain: B1 chain with A47N, N89E
B37: E12D (designed binder)
chain: B1 chain with E12D, N89E
B38: E22C (designed binder)
chain: B1 chain with E22C, N89E
B39: E61W (designed binder)
chain: B1 chain with E61W, N89E
B40: L43A (designed binder)
chain: B1 chain with L43A, N89E

Target: T1, TNFR1
Assay: yeast display SC50

| Binder | apparent Kd (screen) [nM] |
| --- | --- |
| B1 | 0.956 |
| B2 | 0.539 |
| B3 | 5.84 |
| B4 | 15.2 |
| B5 | 0.79 |
| B6 | 0.446 |
| B7 | 0.79 |
| B8 | 1.54 |
| B9 | 0.869 |
| B10 | 0.593 |
| B11 | 0.653 |
| B12 | 6.43 |
| B13 | 11.4 |
| B14 | 1.16 |
| B15 | 11.4 |
| B16 | 2.73 |
| B17 | 0.869 |
| B18 | 3 |
| B19 | 0.446 |
| B20 | 2.05 |

| Binder | apparent Kd (screen) [nM] |
| --- | --- |
| B21 | 0.49 |
| B22 | 4.39 |
| B23 | 0.593 |
| B24 | 22.2 |
| B25 | 16.7 |
| B26 | 1.16 |
| B27 | 0.869 |
| B28 | 1.05 |
| B29 | 1.86 |
| B30 | 12.5 |
| B31 | 7.78 |
| B32 | 2.25 |
| B33 | 11.4 |
| B34 | 0.593 |
| B35 | 0.718 |
| B36 | 1.4 |
| B37 | 1.05 |
| B38 | 1.05 |
| B39 | 1.86 |
| B40 | 0.49 |
